Reference: patent US20240279357A1 (THERINI BIO, published 2024)

What was measured:
[1] = biological target: T1, P2 peptide comprising SEQ ID NO: 31 (human fibrin γ377-395) (human); test: ELISA on coated P2 peptide
T1 construct: Bought (CPC Scientific 920712); also called human P2 peptide
T1 peptide: YSMKKTTMKIIPFNRLTIG
Method: (§1) The humanized antibodies affinity for fibrinogen, fibrin and P2 peptide were assessed by Enzyme-linked immunosorbent assays (ELISA)s (FIGS. 7-16). ELISAs for fibrinogen binding were performed using plasminogen-depleted human Fibrinogen (EMD/Calbiochem). […] IgG1-depleted Fibrinogen (FGN) in 20 mM HEPES/Saline buffer was added to each well of half of a 96-well Nunc Maxisorp™ ELISA plate. The ELISAs for fibrin binding were prepared by adding 50 mL of 20 mM HEPES/Saline buffer containing 14 mM CaCl₂, and 2 units thrombin to each well of the second half of the Nunc Maxisorp™ ELISA plate. 50 mL of 20 mg fibrinogen in 20 mM HEPES/Saline buffer were then added to a total volume of 100 mL. Plates were placed in a 37° C. incubator for 1 hour to allow fibrinogen to clot into fibrin and subsequently placed overnight into a plate dryer at 37° C. overnight. The ELISAs for P2 peptide were prepared by addition of […] of 30 mM P2 peptide in 20 mM HEPES/Saline buffer to each well of a 96-well Nunc Maxisorp™ ELISA plate. Plates were transferred to the plate dryer and dried overnight at 37° C. All ELISAs were preformed using Nunc MaxiSorp 96-well ELISA plates. Blocking was performed using 100 mL 5% BSA in DPBS are incubated at RT for 1 hour. Plates were washed 5× in DPBS containing 0.05% Tween-20 (EL406 was used for the addition of wash buffer only). 50 mL of primary antibodies was diluted in 0.5% BSA in DPBS, and the primary antibodies were added to the plates and incubated for 2 hours at 37° C. Plates were washed 5× in DPBS/Tween. 100 mL secondary antibodies were diluted in 0.5% BSA in DPBS. The secondary antibodies were then added to the plates and incubated for 1 hour at RT. Afterwards, plates were washed 5× in DPBS/Tween. 100 mL of TMB/E substrate solution was added, and the reaction was stopped after 5 minutes with 1N HCl.

[2] = biological target: T2, human Fibrin (human fibrinogen clotted on the plate with thrombin and CaCl2) (human, UniProt P02671 36-629; P02675 45-491; P02679 27-437); test: ELISA on human fibrin formed on the plate
T2 construct: Made in the ELISA wells from the human fibrinogen by thrombin and CaCl2, 1 hour at 37 C, then dried
T2 sequence (looked up) 1: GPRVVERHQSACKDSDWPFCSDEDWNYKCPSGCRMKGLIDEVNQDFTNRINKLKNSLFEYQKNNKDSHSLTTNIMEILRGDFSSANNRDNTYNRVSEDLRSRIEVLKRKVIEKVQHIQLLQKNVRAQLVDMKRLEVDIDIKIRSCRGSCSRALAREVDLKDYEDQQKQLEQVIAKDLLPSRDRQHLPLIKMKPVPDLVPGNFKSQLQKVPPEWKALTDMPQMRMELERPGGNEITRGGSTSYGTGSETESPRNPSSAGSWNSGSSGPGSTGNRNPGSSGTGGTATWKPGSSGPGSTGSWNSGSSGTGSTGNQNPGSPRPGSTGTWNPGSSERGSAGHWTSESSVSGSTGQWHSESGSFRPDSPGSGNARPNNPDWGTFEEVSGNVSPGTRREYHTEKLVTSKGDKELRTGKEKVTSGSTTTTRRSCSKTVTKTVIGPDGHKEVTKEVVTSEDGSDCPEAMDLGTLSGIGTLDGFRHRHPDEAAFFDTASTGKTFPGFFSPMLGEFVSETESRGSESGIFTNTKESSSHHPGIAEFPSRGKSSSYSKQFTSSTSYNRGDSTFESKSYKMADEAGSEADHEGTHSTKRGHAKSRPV
T2 sequence (looked up) 2: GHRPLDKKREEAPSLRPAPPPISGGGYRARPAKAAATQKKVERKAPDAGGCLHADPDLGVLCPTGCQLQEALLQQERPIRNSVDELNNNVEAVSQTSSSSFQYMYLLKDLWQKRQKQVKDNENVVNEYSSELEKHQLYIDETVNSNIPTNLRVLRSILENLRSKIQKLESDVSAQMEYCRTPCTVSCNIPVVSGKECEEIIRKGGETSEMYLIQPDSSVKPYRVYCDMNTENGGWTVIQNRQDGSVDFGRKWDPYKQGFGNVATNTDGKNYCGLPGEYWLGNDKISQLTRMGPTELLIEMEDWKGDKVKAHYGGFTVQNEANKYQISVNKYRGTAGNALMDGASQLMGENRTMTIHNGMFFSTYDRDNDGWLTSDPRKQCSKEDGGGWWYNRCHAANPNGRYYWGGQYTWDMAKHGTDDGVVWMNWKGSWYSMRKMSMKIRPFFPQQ
T2 sequence (looked up) 3: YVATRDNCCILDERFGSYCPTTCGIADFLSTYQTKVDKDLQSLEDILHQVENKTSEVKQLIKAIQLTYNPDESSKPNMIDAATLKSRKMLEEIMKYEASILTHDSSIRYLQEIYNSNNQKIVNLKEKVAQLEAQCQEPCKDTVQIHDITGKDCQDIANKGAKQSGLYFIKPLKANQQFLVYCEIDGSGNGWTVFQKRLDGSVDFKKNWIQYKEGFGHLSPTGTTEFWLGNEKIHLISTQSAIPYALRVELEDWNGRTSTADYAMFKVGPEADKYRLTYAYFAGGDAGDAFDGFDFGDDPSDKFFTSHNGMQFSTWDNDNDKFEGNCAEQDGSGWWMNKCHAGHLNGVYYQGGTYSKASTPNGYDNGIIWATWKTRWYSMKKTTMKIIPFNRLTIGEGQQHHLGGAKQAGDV
Method: as §1

[3] = biological target: T3, plasminogen-depleted human Fibrinogen (EMD/Calbiochem) (human, UniProt P02671 20-629; P02675 31-491; P02679 27-437, limits assumed); test: ELISA on coated human fibrinogen; curve did not reach saturation
T3 construct: Bought protein, IgG-depleted, coated on ELISA plates; also called FGN
T3 sequence (looked up) 1: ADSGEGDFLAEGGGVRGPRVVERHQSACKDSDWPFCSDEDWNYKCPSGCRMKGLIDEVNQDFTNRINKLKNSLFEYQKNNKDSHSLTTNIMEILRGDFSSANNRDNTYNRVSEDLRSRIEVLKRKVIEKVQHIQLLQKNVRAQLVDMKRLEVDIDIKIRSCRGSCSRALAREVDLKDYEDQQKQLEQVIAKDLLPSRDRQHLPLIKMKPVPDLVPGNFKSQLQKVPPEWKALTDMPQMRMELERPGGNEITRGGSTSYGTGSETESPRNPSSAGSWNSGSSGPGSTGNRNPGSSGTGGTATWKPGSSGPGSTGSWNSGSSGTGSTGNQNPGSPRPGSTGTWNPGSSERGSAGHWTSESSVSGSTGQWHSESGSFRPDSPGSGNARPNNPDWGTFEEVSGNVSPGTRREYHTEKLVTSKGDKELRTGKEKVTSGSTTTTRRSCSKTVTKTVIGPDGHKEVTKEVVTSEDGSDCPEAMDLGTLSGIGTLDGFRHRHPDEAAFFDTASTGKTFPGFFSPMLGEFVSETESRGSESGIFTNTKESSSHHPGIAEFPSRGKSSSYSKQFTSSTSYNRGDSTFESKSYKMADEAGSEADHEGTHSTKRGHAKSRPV
T3 sequence (looked up) 2: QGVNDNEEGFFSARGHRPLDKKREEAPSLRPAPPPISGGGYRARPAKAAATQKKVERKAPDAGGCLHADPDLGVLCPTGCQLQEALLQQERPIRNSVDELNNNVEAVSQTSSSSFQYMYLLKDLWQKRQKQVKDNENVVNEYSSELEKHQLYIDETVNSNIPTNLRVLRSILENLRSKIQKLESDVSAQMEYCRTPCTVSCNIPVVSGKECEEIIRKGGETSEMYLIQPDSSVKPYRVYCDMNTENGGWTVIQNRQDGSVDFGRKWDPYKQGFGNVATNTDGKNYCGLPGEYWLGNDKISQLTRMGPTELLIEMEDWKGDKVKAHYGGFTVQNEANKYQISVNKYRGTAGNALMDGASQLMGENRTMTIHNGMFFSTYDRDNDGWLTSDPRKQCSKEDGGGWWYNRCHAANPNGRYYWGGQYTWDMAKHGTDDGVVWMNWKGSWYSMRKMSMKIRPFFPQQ
T3 sequence (looked up) 3: T2 sequence (looked up) 3
Method: as §1

[4] = biological target: T1, P2 peptide comprising SEQ ID NO: 31 …; test: ELISA on plate-coated human P2 peptide, antibody titrated, A450
Method: as §1, with “50 mL of primary antibodies was diluted in 0.5% BSA in DPBS, and the primary antibodies were added to the plates and incubated for 2 hours at 37° C. Plates were washed 5× in DPBS/Tween. 100 mL secondary antibodies were diluted in 0.5% BSA in DPBS. The secondary antibodies were then added to the plates and incubated for 1 hour at RT. Afterwards, plates were washed 5× in DPBS/Tween. 100 mL of TMB/E substrate solution was added, and the reaction was stopped after 5 minutes with 1N HCl.” left out

[5] = biological target: T2, human Fibrin (human fibrinogen clotted …); test: ELISA on plate-coated human fibrin (fibrinogen clotted in the well with thrombin/CaCl2), antibody titrated, A450
Method: as §1, with “50 mL of primary antibodies was diluted in 0.5% BSA in DPBS, and the primary antibodies were added to the plates and incubated for 2 hours at 37° C. Plates were washed 5× in DPBS/Tween. 100 mL secondary antibodies were diluted in 0.5% BSA in DPBS. The secondary antibodies were then added to the plates and incubated for 1 hour at RT. Afterwards, plates were washed 5× in DPBS/Tween. 100 mL of TMB/E substrate solution was added, and the reaction was stopped after 5 minutes with 1N HCl.” left out

B1: mouse monoclonal anti-fibrin antibody 5B8 (antibody, V domains shown)
VH: QVQLQQPGAELVRPGTSVKLSCKASGYTFTSYWIHWVKQRPGQGLEWIGLIDPSDSYTNYNQKFRGKATLTVDTSSSTAYMQLSSLTSEDSAVYYCASSDPTGCWGQGTTLTVSP
VL: DIVMTQAAFSNPITLGTSASMSCRSSKSLLHSSGITYLSWYLQKPGQSPQLLIYQMSNLASGVPDRFSSSGSGTDFTLRISRVEAEDVGVYYCAQNLELPLTFGAGTKLELK
notes: also called murine 5B8; Murine 5B8 (from client)
B1 gave an EC50 [1] of roughly 29 nM, an EC50 [2] of roughly 82.6 nM and an EC50 [3] of roughly 1600 nM. For the same binder, the “EC50 (read off the curve)” value [4] was roughly 30 nM and the “EC50 (read off the curve)” value [5] was roughly 80 nM.
